Here are results for three sequences from the Immune Epitope Database (IEDB).

The target of experiment [1] is HLA-A*01:01. The experiment is described as follows: IEDB peptide-MHC binding, purified MHC/direct/fluorescence; filed as Kd, often an IC50 or EC50 that approximates it; ≥ and ≤ were set here for values at or beyond the usual limits of such assays.
In experiment [2] the target is HLA-A*02:01. The description is as above.
Experiment [3] concerns the target HLA-A*03:01. Described as above.
In experiment [4] the target is HLA-A*11:01. Described as above.
Experiment [5] concerns the target HLA-A*26:01. Described as above. The note with it: source organism: Campylobacter jejuni.
In experiment [6] the target is HLA-A*26:02. Described as above.
For experiment [7], the target named is HLA-A*31:01. The description is as above.
The target in experiment [8] is HLA-A*68:02. The experiment is described as above.
The target of experiment [9] is HLA-B*07:02. Described as above.
Experiment [10] addresses HLA-B*08:01. Described as above.
The target in experiment [11] is HLA-B*08:02. Described as above.
Experiment [12] concerns the target HLA-B*08:03. The description is as above.
The target in experiment [13] is HLA-B*15:01. Described as above.
In experiment [14] the target is HLA-B*15:17. Described as above.
The target in experiment [15] is HLA-B*27:05. The description is as above.
Experiment [16] has as its target HLA-B*46:01. The description is as above.
Experiment [17] has as its target HLA-B*48:01. Described as above.
The target in experiment [18] is HLA-B*57:01. Described as above.
The target of experiment [19] is HLA-B*58:01. Described as above.
Experiment [20] deals with HLA-A*02:03. The experiment can be described thus: IEDB peptide-MHC binding, purified MHC/competitive/fluorescence; filed as Kd, often an IC50 or EC50 that approximates it; ≥ and ≤ were set here for values at or beyond the usual limits of such assays. The settings on record: source organism: Campylobacter jejuni subsp. jejuni BH-01-0142.
Experiment [21] addresses HLA-A*02:06. The experiment is described as above.
Experiment [22] concerns the target HLA-B*40:01. Described as above. The note with it: source organism: Campylobacter jejuni subsp. jejuni BH-01-0142.
Experiment [23] concerns the target HLA-B*18:01. The experiment can be described thus: IEDB peptide-MHC binding, purified MHC/direct/fluorescence; filed as Kd, often an IC50 or EC50 that approximates it; ≥ and ≤ were set here for values at or beyond the usual limits of such assays. The settings on record: source organism: Vibrio parahaemolyticus.
For experiment [24], the target named is HLA-B*40:01. Described as above. The settings on record: source organism: Vibrio parahaemolyticus.
In experiment [25] the target is HLA-A*02:03. Described as above. The settings on record: source organism: Giardia lamblia ATCC 50803.
The target in experiment [26] is HLA-A*02:12. Described as above. The settings on record: source organism: Giardia lamblia ATCC 50803.
The target in experiment [27] is HLA-A*02:19. Described as above. The note with it: source organism: Giardia lamblia ATCC 50803.
Experiment [28] addresses HLA-A*23:01. The description is as above. The settings on record: source organism: Giardia lamblia ATCC 50803.
Experiment [29] deals with HLA-A*24:03. The description is as above. The settings on record: source organism: Giardia lamblia ATCC 50803.
Experiment [30] addresses HLA-A*29:02. The description is as above. The note with it: source organism: Giardia lamblia ATCC 50803.
The target of experiment [31] is HLA-A*02:01. The experiment can be described thus: IEDB peptide-MHC binding, purified MHC/competitive/fluorescence; filed as Kd, often an IC50 or EC50 that approximates it; ≥ and ≤ were set here for values at or beyond the usual limits of such assays. The note with it: source organism: Giardia lamblia ATCC 50803.
Experiment [32] concerns the target HLA-A*26:01. The experiment is described as above. The note with it: source organism: Giardia lamblia ATCC 50803.
Experiment [33] has as its target HLA-A*69:01. The experiment is described as above. The note with it: source organism: Giardia lamblia ATCC 50803.
Experiment [34] concerns the target HLA-B*15:17. The experiment is described as above. The settings on record: source organism: Giardia lamblia ATCC 50803.
The target of experiment [35] is HLA-B*18:01. Described as above. The settings on record: source organism: Giardia lamblia ATCC 50803.
Experiment [36] concerns the target HLA-B*27:03. The description is as above. The settings on record: source organism: Giardia lamblia ATCC 50803.
Experiment [37] has as its target HLA-B*39:01. The description is as above. The settings on record: source organism: Giardia lamblia ATCC 50803.
Experiment [38] addresses HLA-B*46:01. Described as above. The note with it: source organism: Giardia lamblia ATCC 50803.
The target in experiment [39] is HLA-B*51:01. The experiment is described as above. The settings on record: source organism: Giardia lamblia ATCC 50803.
The target of experiment [40] is HLA-B*57:01. Described as above. The note with it: source organism: Giardia lamblia ATCC 50803.
The mark [41] stands for this setting: source organism: Campylobacter jejuni.
Setting [42] is: source organism: Vibrio parahaemolyticus.
The mark [43] stands for this setting: source organism: Vibrio parahaemolyticus RIMD 2210633.
Where [44] appears, read: source organism: Giardia lamblia ATCC 50803.

In the case of VSIRGSHHK, the Kd is no less than 20 µM in experiment [1] (setting [41]); no less than 20 µM in experiment [2] (setting [41]); 145 nM in [3] (setting [41]); 91 nM in experiment [4] (setting [41]); no less than 20 µM in experiment [5]; no less than 20 µM in [6] (setting [41]). For the same sequence, the Kd in experiment [7] (setting [41]) is 4.88 µM; in experiment [8] (setting [41]), no less than 20 µM; in experiment [9] (setting [41]), no less than 20 µM; in experiment [10] (setting [41]) it was no less than 20 µM; in experiment [11] (setting [41]), no less than 20 µM; in [12] (setting [41]), no less than 20 µM. The Kd is no less than 5 µM in [13] (setting [41]); no less than 20 µM in experiment [14] (setting [41]); no less than 20 µM in experiment [15] (setting [41]); no less than 20 µM in [16] (setting [41]); no less than 20 µM in experiment [17] (setting [41]); no less than 20 µM in experiment [18] (setting [41]). In addition, the Kd in [19] (setting [41]) was no less than 20 µM; in experiment [20] it was 3.41 µM; in [21] (source organism: Campylobacter jejuni subsp. jejuni BH-01-0142), 5130 nM; in experiment [22], 3.19 µM.

As for VFMDNAFKK, the Kd is no less than 20 µM in experiment [1] (setting [42]); no less than 20 µM in experiment [2] (setting [42]); 1380 nM in experiment [3] (setting [42]); 131 nM in experiment [4] (setting [42]); no less than 20 µM in [6] (setting [43]); 2.21 µM in experiment [7] (setting [42]). Further, the Kd in experiment [8] (setting [42]), in experiment [9] (setting [42]), in [10] (setting [43]), in experiment [11] (setting [43]), in experiment [12] (setting [43]) and in [13] (setting [42]) was no less than 20 µM throughout. Moreover, the Kd in experiment [14] (setting [42]), in experiment [23], in experiment [15] (setting [42]), in experiment [24], in experiment [16] (setting [42]) and in experiment [17] (setting [42]) was no less than 20 µM throughout. The results for the Kd in experiment [18] (setting [42]), in [19] (setting [42]) and in [21] (setting [43]) were no less than 20 µM, no less than 20 µM and 291 nM, respectively.

As to RIYDPLWFQ, the Kd in experiment [25] is no less than 20 µM; in experiment [26], no less than 20 µM; in [27], no less than 20 µM; in [3] (setting [44]), no less than 20000 nM; in experiment [4] (setting [44]) it was 2930 nM; in experiment [28] it was no less than 20 µM. The Kd in experiment [29], in experiment [30], in [8] (setting [44]), in experiment [31], in experiment [32] and in [33] was no less than 20 µM throughout. Moreover, the Kd in [34], in [35], in [36], in [37], in [38] and in [39] was no less than 20 µM each time. The same sequence registered a Kd in experiment [40] of no less than 20 µM.
